B1: mAb03 (antibody, V domains shown)
VH: QVQLQESGPGLVKPSETLSLTCTVSGFSLTSYGVHWIRQPPGKGLEWIGVIYADGSTNYNPSLKSRVTISKDTSKNQVSLKLSSVTAADTAVYYCARAYGNYWYIDVWGQGTTVTVSS
VL: DIVMTQSPDSLAVSLGERATINCKSSESVSNDVAWYQQKPGQPPKLLINYAFHRFTGVPDRFSGSGYGTDFTLTISSLQAEDVAVYYCHQAYSSPYTFGQGTKLEIK
notes: IgG4; also called analog of tislelizumab; tisle; source: HEK293 suspension cells, cotransfected, purified (Protein A)
B2: mAb16 (antibody, V domains shown)
VH: EVQLLESGGGLVQPGGSLRLSCAASGFTFSSYDMSWVRQAPGKGLEWVSTISGGGSYTYYQDSVKGRFTISRDNSKNTLYLQMNSLRAEDTAVYYCASPYYAMDYWGQGTTVTVSS
VL: DIQLTQSPSFLSAYVGDRVTITCKASQDVGTAVAWYQQKPGKAPKLLIYWASTLHTGVPSRFSGSGSGTEFTLTISSLQPEDFATYYCQHYSSYPWTFGQGTKLEIK
notes: IgG4; also called analog of dostarlimab; dostar; source: HEK293 suspension cells, cotransfected, purified (Protein A)
B3: mAb17 (antibody, V domains shown)
VH: EVQLVESGGGLVQPGGSLRLSCAASGFTFSSYMMSWVRQAPGKGLEWVATISGGGANTYYPDSVKGRFTISRDNAKNSLYLQMNSLRAEDTAVYYCARQLYYFDYWGQGTTVTVSS
VL: DIQMTQSPSSLSASVGDRVTITCLASQTIGTWLTWYQQKPGKAPKLLIYTATSLADGVPSRFSGSGSGTDFTLTISSLQPEDFATYYCQQVYSIPWTFGGGTKVEIK
notes: IgG4; also called analog of camrelizumab; camre; source: HEK293 suspension cells, cotransfected, purified (Protein A)
B4: mAb23 (antibody, V domains shown)
VH: EVQLLESGGVLVQPGGSLRLSCAASGFTFSNFGMTWVRQAPGKGLEWVSGISGGGRDTYFADSVKGRFTISRDNSKNTLYLQMNSLKGEDTAVYYCVKWGNIYFDYWGQGTLVTVSS
VL: DIQMTQSPSSLSASVGDSITITCRASLSINTFLNWYQQKPGKAPNLLIYAASSLHGGVPSRFSGSGSGTDFTLTIRTLQPEDFATYYCQQSSNTPFTFGPGTVVDFR
notes: IgG4; also called analog of cemiplimab; cemip; source: HEK293 suspension cells, cotransfected, purified (Protein A)
B5: mAb17 (analog of camrelizumab) (antibody, V domains shown)
VH: B3 VH
VL: B3 VL
notes: VH; IgG4 heavy-chain constant region with stabilizing 226CPPC hinge; VL; IgG4 analog; source: HEK293 suspension cells, cotransfected, purified (Protein A)
B6: mAb19 (analog of sasanlimab) (antibody, V domains shown)
VH: QVQLVQSGAEVKKPGASVKVSCKASGYTFTSYWINWVRQAPGQGLEWMGNIYPGSSLTNYNEKFKNRVTMTRDTSTSTVYMELSSLRSEDTAVYYCARLSTGTFAYWGQGTLVTVSS
VL: DIVMTQSPDSLAVSLGERATINCKSSQSLWDSGNQKNFLTWYQQKPGQPPKLLIYWTSYRESGVPDRFSGSGSGTDFTLTISSLQAEDVAVYYCQNDYFYPHTFGGGTKVEIK
notes: as for B5
B7: mAb04 (analog of retifanlimab) (antibody, V domains shown)
VH: QVQLVQSGAEVKKPGASVKVSCKASGYSFTSYWMNWVRQAPGQGLEWIGVIHPSDSETWLDQKFKDRVTITVDKSTSTAYMELSSLRSEDTAVYYCAREHYGTSPFAYWGQGTLVTVSS
VL: EIVLTQSPATLSLSPGERATLSCRASESVDNYGMSFMNWFQQKPGQPPKLLIHAASNQGSGVPSRFSGSGSGTDFTLTISSLEPEDFAVYFCQQSKEVPYTFGGGTKVEIK
notes: as for B5
B8: mAb21 (analog of sintilimab) (antibody, V domains shown)
VH: QVQLVQSGAEVKKPGSSVKVSCKASGGTFSSYAISWVRQAPGQGLEWMGLIIPMFDTAGYAQKFQGRVAITVDESTSTAYMELSSLRSEDTAVYYCARAEHSSTGTFDYWGQGTLVTVSS
VL: DIQMTQSPSSVSASVGDRVTITCRASQGISSWLAWYQQKPGKAPKLLISAASSLQSGVPSRFSGSGSGTDFTLTISSLQPEDFATYYCQQANHLPFTFGGGTKVEIK
notes: as for B5

These results are taken from publication PMC7058304 (PLoS ONE, 2020).

In one test the target is T1, Recombinant purified human PD-1 protein, residues Leu25-Thr168, with a C-terminal 6-His tag (Homo sapiens, UniProt Q15116).
T1 construct: programmed cell death protein 1 (PD-1), human, residues Leu25-Thr168; also called programmed cell death protein 1; PD-1-His monomer; source: bought: R&D Systems (catalog# 8986-PD, lot# DDJM0417041)
T1 sequence (Q15116 25-168): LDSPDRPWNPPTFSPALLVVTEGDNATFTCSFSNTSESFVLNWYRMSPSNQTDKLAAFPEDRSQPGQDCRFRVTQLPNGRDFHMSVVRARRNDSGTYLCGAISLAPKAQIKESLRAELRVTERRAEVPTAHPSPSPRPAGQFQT
Nature of the test: SPR; Biacore 8K, C1 chip (flat); mAb captured on amine-coupled goat anti-human IgG Fc, PD-1-His monomer as analyte (100 nM top, 3-fold dilutions), 1200 s dissociation; 25 C, HBS-EP+ pH 7.4; 1:1 Langmuir fit, apparent constants; 8 mAbs measured in two independent experiments. The note with it: both partners purified. (Surface plasmon resonance follows binding to a sensor surface in real time, without labels.)
Turning to B1, the Kd worked out at 0.128 nM; the dissociation rate constant (koff) (as a rule, the first-order rate constant of dissociation) stood at 8.72e-05 s⁻¹; the kon (in general, a measure of how fast the partners come together) worked out at 682000 M⁻¹ s⁻¹.

The target in the next test is T1, Recombinant purified human PD-1 …. As to the kind of experiment: SPR; Biacore 8K, CMD-200M chip (3D-hydrogel); mAb captured on amine-coupled goat anti-human IgG Fc, PD-1-His monomer as analyte (100 nM top, 3-fold dilutions), 1200 s dissociation; 25 C, HBS-EP+ pH 7.4; 1:1 Langmuir fit, apparent constants. The conditions noted are these: both partners purified.
With B2, the Kd stood at 1.63 nM, the off-rate constant (koff) was 0.000287 s⁻¹ and the on-rate (kon) stood at 176000 M⁻¹ s⁻¹.
In the same order, the values of B3 are 4.09 nM, 0.000503 s⁻¹ and 123000 M⁻¹ s⁻¹.
On to B4, for which the Kd stood at 2.01 nM, the koff was determined as 0.000212 s⁻¹ and the kon stood at 105000 M⁻¹ s⁻¹.
In the same order, the values of B1 are 0.24 nM, 6.16e-05 s⁻¹ and 257000 M⁻¹ s⁻¹.

Another test deals with T2, Recombinant purified human PD-1 protein, residues Leu25-Thr168, with a C-terminal 6-His tag (human, UniProt Q15116).
T2 construct: programmed cell death protein 1 (PD-1), human, residues Leu25-Thr168; monomer; the results call it wild-type or full length PD-1 against the P35-Q167 fragment; also called PD-1-His; PD-1 His-tagged monomer; source: bought: R&D Systems; not shown: His6, C-terminal, kept
T2 sequence (Q15116 25-168): as above
As to the kind of experiment: SPR; Biacore 8K, flat chips (average of C1 and CMD-P); mAbs captured on goat anti-human IgG Fc; PD-1 His-tagged monomer analyte 0.4-100 nM; 25 C; HBS-EP+ pH 7.4; 1:1 Langmuir fit with mass transport; apparent. The note with it: both partners purified.
Turning to B5, the Kd turned out to be 2.4 nM.
The same measure, in the same setting: the value for B6 was less than 0.13 nM; that for B7 was 0.35 nM.
Same read-out and setting: the value for B8 was less than 0.12 nM.

The target of a further test is T3, biotinylated His-tagged PD-1 (Homo sapiens, UniProt Q15116, biotin).
T3 construct: PD-1, His-tagged, biotinylated, used in the MSD experiments; probably the R&D Systems Leu25-Thr168 protein after biotinylation
T3 sequence (Q15116 whole entry, looked up, tested part not stated): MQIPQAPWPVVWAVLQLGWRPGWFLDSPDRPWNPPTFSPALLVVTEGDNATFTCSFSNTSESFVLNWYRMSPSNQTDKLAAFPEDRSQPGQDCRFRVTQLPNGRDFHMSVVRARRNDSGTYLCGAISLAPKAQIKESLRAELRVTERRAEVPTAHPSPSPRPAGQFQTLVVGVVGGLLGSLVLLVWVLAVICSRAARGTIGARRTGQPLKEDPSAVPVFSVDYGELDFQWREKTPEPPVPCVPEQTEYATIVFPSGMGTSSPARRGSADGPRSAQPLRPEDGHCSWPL
As to the kind of experiment: MSD solution equilibrium titration; 100 pM biotinylated His-tagged PD-1 titrated with mAb (top 100, 50 or 10 nM binding sites), 18 h at room temperature; free antigen captured on mAb-coated MSD plates; relative KD. The note with it: both partners purified.
For B5, the Kd was determined as 0.47 nM.
Same read-out and setting: the value for B6 was 0.02 nM.
Same read-out and setting: as for B7, the figure is 0.056 nM; as for B8, 0.028 nM.

In a further test the target is T2, Recombinant purified human PD-1 …. Nature of the test: SPR; Biacore 8K, 3D-hydrogel chips (average of CM5 and CMD-200M); mAbs captured on goat anti-human IgG Fc; PD-1 His-tagged monomer analyte 0.4-100 nM; 25 C; HBS-EP+ pH 7.4; 1:1 Langmuir fit with mass transport; apparent. The conditions noted are these: both partners purified.
B5: the Kd amounted to 4.5 nM.
Same read-out and setting: as for B6, the figure is less than 0.3 nM; as for B7, 0.65 nM.
On the same count and under the same terms, the value for B8 was less than 0.21 nM.

For the next test, the target named is T1, Recombinant purified human PD-1 …. Nature of the test: SPR; Biacore 8K, CM5 chip (3D-hydrogel); mAb captured on amine-coupled goat anti-human IgG Fc, PD-1-His monomer as analyte (100 nM top, 3-fold dilutions), 1200 s dissociation; 25 C, HBS-EP+ pH 7.4; 1:1 Langmuir fit, apparent constants. The conditions noted are these: both partners purified.
Take B2: the Kd was 1.77 nM, the koff was 0.000262 s⁻¹ and the kon was found to be 148000 M⁻¹ s⁻¹.
For B3 the same measures were 4.99 nM, 0.000456 s⁻¹ and 91400 M⁻¹ s⁻¹.
For B4 the same measures were 1.75 nM, 0.000157 s⁻¹ and 90100 M⁻¹ s⁻¹.
In the same order, the values of B1 are 0.277 nM, 6.03e-05 s⁻¹ and 218000 M⁻¹ s⁻¹.

For another test the target is unchanged. As to the kind of experiment: SPR; Biacore 8K, C1 chip (flat); mAb captured on amine-coupled goat anti-human IgG Fc, PD-1-His monomer as analyte (100 nM top, 3-fold dilutions), 1200 s dissociation; 25 C, HBS-EP+ pH 7.4; 1:1 Langmuir fit, apparent constants; 8 mAbs measured in two independent experiments. The conditions noted are these: both partners purified. The source holds these as a separate data set.
As to B2, the Kd amounted to 0.784 nM, the koff was 0.000297 s⁻¹ and the on-rate (kon) was 379000 M⁻¹ s⁻¹.
For B3 the same measures were 2.15 nM, 0.000526 s⁻¹ and 245000 M⁻¹ s⁻¹.
For B4 the same measures were 0.752 nM, 0.000188 s⁻¹ and 250000 M⁻¹ s⁻¹.
In the same order, the values of B1 are 0.119 nM, 7.54e-05 s⁻¹ and 636000 M⁻¹ s⁻¹.

Another test concerns the target T2, Recombinant purified human PD-1 …. As to the kind of experiment: SPR; Carterra LSA, CMD-P (flat) chip; mAbs captured on goat anti-human IgG Fc in a 384-spot array; PD-1-His analyte 0.5-1000 nM, 5 min association, 20 min dissociation; HBS-ET + 0.5 mg/ml BSA; 1:1 Langmuir fit; mean of spots; apparent. The conditions noted are these: both partners purified.
As for B5, the Kd is 4 nM, the dissociation rate constant (koff) worked out at 0.00073 s⁻¹ and the kon stood at 180000 M⁻¹ s⁻¹.
For B6 the same measures were less than 0.17 nM, less than 4.3e-05 s⁻¹ and 250000 M⁻¹ s⁻¹.
For B7 the same measures were 0.7 nM, 0.00039 s⁻¹ and 580000 M⁻¹ s⁻¹.
For B8 the same measures were less than 0.13 nM, less than 4.3e-05 s⁻¹ and 330000 M⁻¹ s⁻¹.

Another test has as its target T1, Recombinant purified human PD-1 …. As to the kind of experiment: SPR; Biacore 8K, CMD-P chip (flat); mAb captured on amine-coupled goat anti-human IgG Fc, PD-1-His monomer as analyte (100 nM top, 3-fold dilutions), 1200 s dissociation; 25 C, HBS-EP+ pH 7.4; 1:1 Langmuir fit, apparent constants. The conditions noted are these: both partners purified.
As to B2, the Kd came out at 0.965 nM, the koff is 0.000269 s⁻¹ and the kon was 279000 M⁻¹ s⁻¹.
In the same order, the values of B3 are 2.58 nM, 0.000497 s⁻¹ and 192000 M⁻¹ s⁻¹.
Regarding B4, the Kd was 0.897 nM, the koff stood at 0.000164 s⁻¹ and the kon came out at 183000 M⁻¹ s⁻¹.
In the same order, the values of B1 are 0.134 nM, 5.77e-05 s⁻¹ and 432000 M⁻¹ s⁻¹.
